Values of other authors in patent US20090048308A1, “VLA-4 Antagonists” (priority 2005, published 2009).

Target: T1, VLA-4 (Homo sapiens, UniProt P13612)
T1 construct: host or cells: VLA-4-bearing blood cells of trial subjects (inferred)
Conditions: early clinical trials

natalizumab: humanized monoclonal antibody against α4 (Tysabri®, Elan/Biogen)
receptor occupancy: > 80%
